In IntAct's records for PubMed 25991726:

B1: Ribosome maturation protein SBDS (Homo sapiens), Q9Y3A5 (parent)
chain: MSIFTPTNQIRLTNVAVVRMKRAGKRFEIACYKNKVVGWRSGVEKDLDEVLQTHSVFVNVSKGQVAKKEDLISAFGTDDQTEICKQILTKGEVQVSDKERHTQLEQMFRDIATIVADKCVNPETKRPYTVILIERAMKDIHYSVKTNKSTKQQALEVIKQLKEKMKIERAHMRLRFILPVNEGKKLKEKLKPLIKVIESEDYGQQLEIVCLIDPGCFREIDELIKKETKGKGSLEVLNLKDVEEGDEKFE
partner: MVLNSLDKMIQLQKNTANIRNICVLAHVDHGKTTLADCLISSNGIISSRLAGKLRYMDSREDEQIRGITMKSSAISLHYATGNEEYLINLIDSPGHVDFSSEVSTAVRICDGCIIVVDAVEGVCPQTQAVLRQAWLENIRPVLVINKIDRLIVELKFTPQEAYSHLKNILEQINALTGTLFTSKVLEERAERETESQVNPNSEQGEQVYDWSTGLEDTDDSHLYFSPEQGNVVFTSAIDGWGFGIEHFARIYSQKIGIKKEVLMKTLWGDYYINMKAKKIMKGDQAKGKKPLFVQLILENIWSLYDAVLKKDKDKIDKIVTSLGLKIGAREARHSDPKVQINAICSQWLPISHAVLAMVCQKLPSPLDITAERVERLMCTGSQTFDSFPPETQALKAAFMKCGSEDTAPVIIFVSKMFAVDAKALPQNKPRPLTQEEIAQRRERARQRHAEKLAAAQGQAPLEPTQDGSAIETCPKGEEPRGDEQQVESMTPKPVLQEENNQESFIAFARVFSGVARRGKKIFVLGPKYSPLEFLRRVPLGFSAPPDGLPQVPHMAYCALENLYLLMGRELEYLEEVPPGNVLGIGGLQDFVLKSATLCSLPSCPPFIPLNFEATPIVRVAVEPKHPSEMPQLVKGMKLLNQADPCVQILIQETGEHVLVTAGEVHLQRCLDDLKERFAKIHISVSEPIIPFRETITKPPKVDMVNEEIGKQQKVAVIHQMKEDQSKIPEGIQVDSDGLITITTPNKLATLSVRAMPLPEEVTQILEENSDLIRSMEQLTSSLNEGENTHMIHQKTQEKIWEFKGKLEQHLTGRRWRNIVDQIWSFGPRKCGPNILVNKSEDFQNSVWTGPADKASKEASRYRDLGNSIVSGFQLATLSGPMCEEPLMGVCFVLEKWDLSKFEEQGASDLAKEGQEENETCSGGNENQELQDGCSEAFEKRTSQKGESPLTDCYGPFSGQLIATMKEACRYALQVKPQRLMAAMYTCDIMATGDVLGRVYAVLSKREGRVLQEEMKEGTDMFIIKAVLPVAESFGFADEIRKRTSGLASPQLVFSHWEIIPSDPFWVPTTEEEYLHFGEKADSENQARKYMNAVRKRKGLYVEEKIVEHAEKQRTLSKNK

Variants of: B1
Conditions: with efl1_human EFL1, Q7Z2Z2

Row | effect of a mutation on the interaction | Variant
1 | decreasing interaction strength | S143L
